Consider 1 protein from patent US20070224662.

This series deals with inactive (non-phosphorylated) HIS-tagged MAPK14.
Chain of inactive (non-phosphorylated) HIS-tagged MAPK14 (chain, as listed by the source): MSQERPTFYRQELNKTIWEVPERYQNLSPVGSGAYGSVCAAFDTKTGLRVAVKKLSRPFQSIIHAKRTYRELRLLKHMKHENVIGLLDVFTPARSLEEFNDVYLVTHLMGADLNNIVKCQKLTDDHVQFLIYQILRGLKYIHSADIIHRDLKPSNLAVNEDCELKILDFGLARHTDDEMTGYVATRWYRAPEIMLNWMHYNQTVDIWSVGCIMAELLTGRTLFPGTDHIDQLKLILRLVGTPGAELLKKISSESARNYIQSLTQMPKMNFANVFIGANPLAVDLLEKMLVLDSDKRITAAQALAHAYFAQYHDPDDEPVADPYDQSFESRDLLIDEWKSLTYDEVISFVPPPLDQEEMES

B1: MKK6 (no-tag upstream kinase) (protein)
chain: MSQSKGKKRNPGLKIPKEAFEQPQTSSTPPRDLDSKACISIGNQNFEVKADDLEPIMELGRGAYGVVEKMRHVPSGQIMAVKRIRATVNSQEQKRLLMDLDISMRTVDCPFTVTFYGALFREGDVWICMELMDTSLDKFYKQVIDKGQTIPEDILGKIAVSIVKALEHLHSKLSVIHRDVKPSNVLINALGQVKMCDFGISGYLVDSVAKTIDAGCKPYMAPERINPELNQKGYSVKSDIWSLGITMIELAILRFPYDSWGTPFQQLKQVVEEPSPQLPADKFSAEFVDFTSQCLKKNSKERPTYPELMQHPFFTLHESKGTDVASFVKLILGD
Turning to B1, the “amount of phosphorylated MAPK14, Western blot with the p38 antibody, at decreasing MKK6 plasmid (FIG. 3)” value is “as the concentration of the MKK6 plasmid present in the reaction was decreased, the amount of phosphorylation MAPK14 similarly decreased” and the “phosphorylation of MAPK14, Western blot with anti-phospho-p38 antibody (FIG. 2)” value is “co-expression of MAPK14 with MKK6 in the presence of an HEK 293 cell extract greatly enhances the phosphorylation of proteins present in the reaction”.
